From patent US20060014680A1, “Peptides and compounds that bind to the IL-5 receptor” (priority 2004, published 2006)
Positions of bridges follow the written chain, without caps; N, C: chain ends.

T1: human IL-5Rα extracellular domain (Homo sapiens, UniProt Q01344)
T1 construct: human IL-5Rα extracellular domain harvest; made in house; host or cells: CHO cells
T1 sequence (Q01344 21-342 limits assumed): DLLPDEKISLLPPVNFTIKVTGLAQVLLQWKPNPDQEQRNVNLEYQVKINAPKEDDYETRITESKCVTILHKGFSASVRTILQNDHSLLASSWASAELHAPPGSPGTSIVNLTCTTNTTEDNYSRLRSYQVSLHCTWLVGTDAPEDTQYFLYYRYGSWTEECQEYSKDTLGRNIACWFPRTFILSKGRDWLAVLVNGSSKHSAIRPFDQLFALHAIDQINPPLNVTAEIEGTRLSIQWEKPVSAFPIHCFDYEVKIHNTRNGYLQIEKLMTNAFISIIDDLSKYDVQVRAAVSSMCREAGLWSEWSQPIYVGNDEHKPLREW

T2: human IL-5Rα extracellular domain harvest with a MAb 179 epitope tag (human, UniProt Q01344 21-342)
T2 construct: extracellular domain; Captured on MAb179-conjugated AlphaScreen acceptor beads; also called IL-5 receptor; IL-5R-α chain ECD
T2 sequence (looked up): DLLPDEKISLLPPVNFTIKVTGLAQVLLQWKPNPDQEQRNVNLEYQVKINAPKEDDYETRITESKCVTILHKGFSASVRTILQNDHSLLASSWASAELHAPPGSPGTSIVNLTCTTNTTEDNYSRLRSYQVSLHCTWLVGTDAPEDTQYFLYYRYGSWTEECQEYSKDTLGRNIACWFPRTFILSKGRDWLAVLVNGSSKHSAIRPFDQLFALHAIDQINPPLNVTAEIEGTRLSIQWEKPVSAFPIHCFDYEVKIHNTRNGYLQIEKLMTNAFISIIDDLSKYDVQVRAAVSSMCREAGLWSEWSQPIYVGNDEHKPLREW

T3: human IL-5 receptor (Homo sapiens, UniProt P32927+Q01344)
T3 construct: endogenous in cells; host or cells: HL60 subclone induced towards eosinophil differentiation with sodium butyrate
T3 sequence (Q01344 21-420): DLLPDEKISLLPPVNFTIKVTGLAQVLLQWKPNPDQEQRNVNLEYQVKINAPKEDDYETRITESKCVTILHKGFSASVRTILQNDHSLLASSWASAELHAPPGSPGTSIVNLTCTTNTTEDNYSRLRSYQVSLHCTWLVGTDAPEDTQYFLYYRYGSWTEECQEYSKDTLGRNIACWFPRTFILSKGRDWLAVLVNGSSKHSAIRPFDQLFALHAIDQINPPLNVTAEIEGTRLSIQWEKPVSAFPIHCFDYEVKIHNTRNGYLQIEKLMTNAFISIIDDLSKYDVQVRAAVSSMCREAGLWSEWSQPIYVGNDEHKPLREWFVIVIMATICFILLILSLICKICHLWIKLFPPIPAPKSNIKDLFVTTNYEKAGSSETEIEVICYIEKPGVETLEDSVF
T3 sequence (P32927 17-897): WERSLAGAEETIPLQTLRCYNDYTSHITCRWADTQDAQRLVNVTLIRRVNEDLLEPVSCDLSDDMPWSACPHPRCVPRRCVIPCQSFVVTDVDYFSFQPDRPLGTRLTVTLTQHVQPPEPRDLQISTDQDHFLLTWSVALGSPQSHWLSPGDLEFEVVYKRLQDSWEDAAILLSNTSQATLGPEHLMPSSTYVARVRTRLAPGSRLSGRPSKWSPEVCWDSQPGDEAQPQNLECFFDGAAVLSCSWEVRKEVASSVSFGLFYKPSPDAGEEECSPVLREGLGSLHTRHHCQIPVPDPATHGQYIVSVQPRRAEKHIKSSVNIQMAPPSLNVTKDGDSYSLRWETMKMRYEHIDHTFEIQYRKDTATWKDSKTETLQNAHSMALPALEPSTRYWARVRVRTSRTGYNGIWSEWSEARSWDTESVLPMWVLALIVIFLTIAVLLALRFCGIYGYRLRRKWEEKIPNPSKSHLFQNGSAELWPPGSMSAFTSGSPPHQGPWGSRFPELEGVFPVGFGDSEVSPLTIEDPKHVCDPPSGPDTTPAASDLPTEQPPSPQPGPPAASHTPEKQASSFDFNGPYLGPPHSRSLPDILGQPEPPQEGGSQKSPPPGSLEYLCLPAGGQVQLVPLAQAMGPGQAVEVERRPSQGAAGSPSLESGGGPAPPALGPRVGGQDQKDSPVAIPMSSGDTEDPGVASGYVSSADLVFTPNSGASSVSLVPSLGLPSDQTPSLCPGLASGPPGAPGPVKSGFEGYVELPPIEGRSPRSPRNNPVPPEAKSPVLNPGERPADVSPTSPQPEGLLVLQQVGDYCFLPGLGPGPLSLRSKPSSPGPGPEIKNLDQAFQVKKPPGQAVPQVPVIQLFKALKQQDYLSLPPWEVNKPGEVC


Target: T1, human IL-5Rα extracellular domain
Test: IL-5 receptor-ligand Alpha Quest binding assay (alanine scan of AF17121, FIG. 1)
Conditions: relative to parent monomer AF17121 (SEQ ID NO:1); single Ala substitution
Description: The affinity of compounds for the IL-5 receptor was tested in a homogeneous Alpha Quest binding assay. The peptides tested were solubilized at approximately 10 mM in DMSO. Each peptide was then serially diluted into freshly made, sterile filtered assay buffer (40 mM Hepes, pH 7.4 with NaOH, containing 1 mM MgCl2, 0.1% BSA and 0.05% Tween-20). Four microliters of each test compound dilution was transferred in triplicate to a 384-well, low volume, white, polypropylene Griener plate (E&K Scientific #31075). A mixture was prepared in assay buffer containing Packard Bioscience AlphaScreen streptavidin coated donor beads at […], MAb179 (prepared as described in Whitehom, E., A Generic Method for Expression and Use of “Tagged” Soluble Versions of Cell Surface Receptor, Biotechnolgy 1995, 13, 1215-1219) conjugated Packard Bioscience Alpha Screen acceptor beads per manufactures protocol, at 40 ug/mL, and human IL-5Rα extracellular domain harvest with a MAb 179 epitope tag prepared as previously described (England, B., A Potent Dimeric Peptide Antagonist of Interleukin-5 that Binds Two Interleukin-5 Receptor α Chains, PNAS, vol.97, no. 12, 6862-6867). Two microliters of beads and receptor harvest mixture were added to each assay well. Alpha Quest beads are light sensitive so all steps after the introduction of the beads were carried out under green lighting (lights adapted with Roscolux Chroma Green #389 filter sleeves which transmit <1% at 680 nm). After a 5-10 minute room temperature incubation, two microliters of 62.4 nM biotinylated MBP-AF12368, GEVCTRDVANHRWMCGVD (SEQ ID NO 73), tracer peptide (prepared as described in Schatz P., Use of Peptide Libraries to Map the Substrate Specificity of a Peptide-Modifying Enzyme: A 13 Residue Consensus Peptide Specifies Biotinylation in Escherichia coli, Biotechnology 1993, 11, 1138-1143) diluted in assay buffer was added to each well. The assay plate was spun to 55 rpm in a plate centrifuge, sealed with Packard Top Seal, wrapped in foil and placed in a room temperature incubator in the instrument room. The plate was read after 16-20 hours using a Packard Bioscience Alpha Quest Discovery™ plate reader.
Results for various compound embodiments of the invention are depicted in FIGS. 1-4 and 6-8.

| more potent (peptide monomer with single alanine substitution) | Molecule |
| --- | --- |
| about 350% | Ac-ADECWRIIASHTWFCAEE-NH2 (cysteine pairing not given here) [AF35921] |
| about 450% | Ac-VDECWRIIAAHTWFCAEE-NH2 (cysteine pairing not given here) [AF35912] |
| about 135% | Ac-VDECWRIIASHAWFCAEE-NH2 (cysteine pairing not given here) [AF35910] |
| about 200% | Ac-Val Ala Glu Cys Trp Arg Ile Ile Ala Ser His Thr Trp Phe Cys Ala Glu Glu-NH2 (Ac-VAECWRIIASHTWFCAEE-NH2; not fully specified (bridges); printed as Ac-Val Ala Glu Cys Trp Arg Ile Ile Ala Ser His Thr Trp Phe Cys Ala Glu Glu-NH2; cysteine pairing not given here) [AF35920] |
| about 675% | Ac-Val Asp Ala Cys Trp Arg Ile Ile Ala Ser His Thr Trp Phe Cys Ala Glu Glu-NH2 (Ac-VDACWRIIASHTWFCAEE-NH2; not fully specified (bridges); printed as Ac-Val Asp Ala Cys Trp Arg Ile Ile Ala Ser His Thr Trp Phe Cys Ala Glu Glu-NH2; cysteine pairing not given here) [AF35918] |

Target: T2, human IL-5Rα extracellular domain …
Test: alanine scan of AF17121, AlphaQuest competition binding assay on human IL-5Rα ECD with the tracer biotinylated MBP-AF12368 (the assay is named by FIG. 1, not by the sentence)
Conditions: not given
Description: The affinity of compounds for the IL-5 receptor was tested in a homogeneous Alpha Quest binding assay. The peptides tested were solubilized at approximately 10 mM in DMSO. Each peptide was then serially diluted into freshly made, sterile filtered assay buffer (40 mM Hepes, pH 7.4 with NaOH, containing 1 mM MgCl₂, 0.1% BSA and 0.05% Tween-20). Four microliters of each test compound dilution was transferred in triplicate to a 384-well, low volume, white, polypropylene Griener plate (E&K Scientific #31075). A mixture was prepared in assay buffer containing Packard Bioscience AlphaScreen streptavidin coated donor beads at […], MAb179 (prepared as described in Whitehom, E., A Generic Method for Expression and Use of “Tagged” Soluble Versions of Cell Surface Receptor, Biotechnolgy 1995, 13, 1215-1219) conjugated Packard Bioscience Alpha Screen acceptor beads per manufactures protocol, at 40 ug/mL, and human IL-5Rα extracellular domain harvest with a MAb 179 epitope tag prepared as previously described (England, B., A Potent Dimeric Peptide Antagonist of Interleukin-5 that Binds Two Interleukin-5 Receptor α Chains, PNAS, vol.97, no. 12, 6862-6867). Two microliters of beads and receptor harvest mixture were added to each assay well. Alpha Quest beads are light sensitive so all steps after the introduction of the beads were carried out under green lighting (lights adapted with Roscolux Chroma Green #389 filter sleeves which transmit <1% at 680 nm). After a 5-10 minute room temperature incubation, two microliters of 62.4 nM biotinylated MBP-AF12368, […] (SEQ ID NO 73), tracer peptide (prepared as described in Schatz P., Use of Peptide Libraries to Map the Substrate Specificity of a Peptide-Modifying Enzyme: A 13 Residue Consensus Peptide Specifies Biotinylation in Escherichia coli, Biotechnology 1993, 11, 1138-1143) diluted in assay buffer was added to each well. The assay plate was spun to 55 rpm in a plate centrifuge, sealed with Packard Top Seal, wrapped in foil and placed in a room temperature incubator in the instrument room. The plate was read after 16-20 hours using a Packard Bioscience Alpha Quest Discovery™ plate reader.

| percent more potent than AF17121 (SEQ ID NO: 1) [%] | Molecule |
| --- | --- |
| ~675 | Ac-VDACWRIIASHTWFCAEE-NH2 (disulfide 4-15 (inferred)) [AF35918 (Ac-Val Asp Ala Cys Trp Arg Ile Ile Ala Ser His Thr Trp Phe Cys Ala Glu Glu-NH2)] |
| ~350 | Ac-ADECWRIIASHTWFCAEE-NH2 (disulfide 4-15 (inferred)) [AF35921 (Ac-Ala Asp Glu Cys Trp Arg Ile Ile Ala Ser His Thr Trp Phe Cys Ala Glu Glu-NH2)] |
| ~200 | Ac-VAECWRIIASHTWFCAEE-NH2 (disulfide 4-15 (inferred)) [AF35920 (Ac-Val Ala Glu Cys Trp Arg Ile Ile Ala Ser His Thr Trp Phe Cys Ala Glu Glu-NH2)] |
| ~450 | Ac-VDECWRIIAAHTWFCAEE-NH2 (disulfide 4-15 (inferred)) [AF35912 (Ac-Val Asp Glu Cys Trp Arg Ile Ile Ala Ala His Thr Trp Phe Cys Ala Glu Glu-NH2)] |
| ~135 | Ac-VDECWRIIASHAWFCAEE-NH2 (disulfide 4-15 (inferred)) [AF35910 (Ac-Val Asp Glu Cys Trp Arg Ile Ile Ala Ser His Ala Trp Phe Cys Ala Glu Glu-NH2)] |

Target: T3, human IL-5 receptor
Test: not given
Conditions: high affinity IL-5 binding sites; HL60 subclone, eosinophilic differentiation initiated with sodium butyrate; cited from earlier work

| Molecule | Kd [pM] |
| --- | --- |
| IL-5: lymphokine secreted by T cells and mast cells, having biological activities on B cells and eosinophils | 30 |
